From US20130217572A1, “SPECIFIC DELIVERY OF AGROCHEMICALS” (VRIJE UNIVERSITEIT BRUSSEL, priority 2010, published 2013) come the findings set out here.

Test [1] has as its target T1, potato lectin (Sigma) (potato, UniProt Q9S8M0 23-323).
T1 construct: Bought glycoprotein, coated on ELISA plates
T1 sequence (looked up): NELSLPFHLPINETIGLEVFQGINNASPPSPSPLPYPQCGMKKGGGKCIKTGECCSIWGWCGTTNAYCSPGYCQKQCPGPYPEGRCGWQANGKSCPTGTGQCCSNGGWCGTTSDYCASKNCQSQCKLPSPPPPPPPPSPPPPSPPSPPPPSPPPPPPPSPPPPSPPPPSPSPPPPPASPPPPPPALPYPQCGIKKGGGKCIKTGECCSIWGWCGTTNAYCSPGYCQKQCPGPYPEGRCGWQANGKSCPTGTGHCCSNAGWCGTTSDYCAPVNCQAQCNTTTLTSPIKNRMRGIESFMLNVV
Nature of the test: VHH-coupled Uvitex microcapsules retained on potato lectin-coated wells; 4% surface coverage.

Test [2] has as its target T1, potato lectin (Sigma). Nature of the test: VHH-coupled Uvitex microcapsules retained on potato lectin-coated wells; 20% surface coverage.
For test [3], the target named is T1, potato lectin (Sigma). Nature of the test: VHH-coupled Uvitex microcapsules retained on potato lectin-coated wells; 100% surface coverage.
Test [4] addresses T1, potato lectin (Sigma). The test can be described thus: VHH-coupled Uvitex OB microcapsules retained on potato lectin-coated wells; 4% surface coverage.
Test [5] concerns the target T1, potato lectin (Sigma). The test can be described thus: VHH-coupled Uvitex OB microcapsules retained on potato lectin-coated wells; 20% surface coverage.
In test [6] the target is T1, potato lectin (Sigma). The test can be described thus: VHH-coupled Uvitex OB microcapsules retained on potato lectin-coated wells; 100% surface coverage.
Test [7] has as its target T1, potato lectin (Sigma). Nature of the test: VHH-coupled lambda-cyhalothrin microcapsules retained on potato lectin-coated wells; 4% surface coverage.
Test [8] concerns the target T1, potato lectin (Sigma). The test can be described thus: VHH-coupled lambda-cyhalothrin microcapsules retained on potato lectin-coated wells; 20% surface coverage.
For test [9], the target named is T1, potato lectin (Sigma). The test can be described thus: VHH-coupled lambda-cyhalothrin microcapsules retained on potato lectin-coated wells; 100% surface coverage.
Test [10] concerns the target unrelated antigens. Nature of the test: VHH-coupled Uvitex microcapsules retained on wells coated with unrelated antigen; 4% surface coverage.
Test [11] has as its target unrelated antigens. Nature of the test: VHH-coupled Uvitex microcapsules retained on wells coated with unrelated antigen; 20% surface coverage.
Test [12] has as its target unrelated antigens. Nature of the test: VHH-coupled Uvitex microcapsules retained on wells coated with unrelated antigen; 100% surface coverage.
Test [13] addresses T1, potato lectin (Sigma). The test can be described thus: VHH-coupled Uvitex microcapsules on potato lectin-coated wells; 25-fold less microcapsules applied. How it is done:
An ELISA-like assay was performed using high bind half area microplates (Greiner Bio-One) coated with 5 μg/well potato lectin. Control wells included blank wells or wells coated with unrelated antigens. Plates were washed three times with PBS with 0.05%-TWEEN®-20 and blocked with 5% skimmed milk in PBS for 1 to 2 hours. VHH-coupled Uvitex-containing microcapsules were diluted to appropriate densities in 1% skimmed milk in PBS with 0.05%-TWEEN®-20. Five-fold serial dilution series were prepared and allowed to bind to the surface to compare binding of microcapsules coupled with monovalent or bivalent VHH. Microcapsules were added to the antigen-coated or control wells and allowed to bind for 1 hour. Unbound microcapsules were removed by washing five times with PBS with 0.05%-TWEEN®-20. The bottoms of ELISA plate wells were analyzed for bound microcapsules on a macrozoom microscope system (Nikon). Microcapsules were counted using Volocity image analysis software (Perkin Elmer). A DAPI filter was used to visualize Uvitex microcapsules.
The surface area of microcapsules with coupled bivalent VHH was 15-fold above the surface area of blank microcapsules applied at this microcapsule density while the surface area of microcapsules with monovalent VHH was only six-fold above the surface area of blank microcapsules applied at this microcapsule density. […]

Regarding unrelated VHH, the surface area of bound microcapsules with potato lectin (Sigma) [1] turned out to be 19.2; in the test with potato lectin (Sigma) [2], 43.5; in the test with potato lectin (Sigma) [3], 142. Also, the area of bound microcapsules was 7.53 in the test with potato lectin (Sigma) [4], 35.4 in the test with potato lectin (Sigma) [5] and 16.7 with potato lectin (Sigma) [6]. Also, the counts of bound microcapsules (microcapsules) with potato lectin (Sigma) [7] was 348; with potato lectin (Sigma) [8], 709; in the test with potato lectin (Sigma) [9], 828.

B1: Bivalent VHH 3E6 (VHH)
chain: QVQLQESGGGLVQPGGTLSLSCAASGFNVRWYGMGWFRQAPGKEREGVACISALQETTAYADSVKGRFTLSRDNPKNTLSLQMNNLQPEDTGVYYCATTDCDDSSRMTYTSYLGQGTQVTVSSGGGGSGGGSQVQLQESGGGLVQPGGTLSLSCAASGFNVRWYGMGWFRQAPGKEREGVACISALQETTAYADSVKGRFTLSRDNPKNTLSLQMNNLQPEDTGVYYCATTDCDDSSRMTYTSYLGQGTQVTVSSAAAEQKLISEEDLNGAAHHHHHH
notes: Built from the general description of the bivalent constructs (two VHH in tandem); Tested covalently coupled to Uvitex microcapsules
Turning to B1, the figures for the surface area of bound microcapsules with unrelated antigens [10], in the test with unrelated antigens [11] and with unrelated antigens [12] were 15, 22.1 and 45.7, respectively. Besides, the “fold of surface area above blank microcapsules” value with potato lectin (Sigma) [13] amounted to 15 fold.
